Results on 5 molecules are retold here after patent publication US20260085106A1 (AUTOLUS, published 2026).

This assay concerns the target T1, caffeine dAb.
T1 construct: Llama-derived
The assay is described as follows: peptide phage display panning on the anti-caffeine sdAb, method of Example 6.

T1 sequence (VHH, as listed by the source): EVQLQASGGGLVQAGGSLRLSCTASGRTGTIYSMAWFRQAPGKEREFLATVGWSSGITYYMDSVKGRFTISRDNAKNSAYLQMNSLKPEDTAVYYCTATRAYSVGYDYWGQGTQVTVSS

For DLSIGNH (also called DLSIGNH) [SEQ ID NO 13], the binding result is “binds”. Turning to YPDVPLA (also called YPDVPLA) [SEQ ID NO 15], the binding result is reported as “binds”. In the case of HDSPTAA (also called HDSPTAA) [SEQ ID NO 14] it was “binds”.

Consider HTLNKPP (also called HTLNKPP) [SEQ ID NO 12], for which the binding result is on record as “binds”. Consider ACTYLNSAKC [SEQ ID NO 16], for which the binding result is listed as “binds”.
